Measured values reported in the supplement of paper PMC9732359.
± gives the uncertainty stated by the source.

Assay: protein stability index of a GFP-peptide fusion (yeast GPS) (PSI 1-4); higher = more stable; sorted into four equal gates, so the index is relative within each strain
Outline: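 The protein stability index combines read frequencies across sorting gates, each weighted by its gate number and then summed. To obtain those frequencies, a pooled yeast library of GFP fusions to tiled 17-residue yeast protein peptides, on a plasmid also expressing Cherry, was grown to mid-log phase in leucine-free medium. The cells were sorted into four equal gates by GFP/Cherry ratio before plasmid amplification by PCR and Illumina sequencing.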

Row | Sequence | protein stability index (doa10∆) | protein stability index (pdr5∆) | protein stability index (san1∆) | protein stability index (ubr1∆)
1 | CVRVQLIKNGKKVTAFV [RPS23A] | 2.59 ± 0.085 | 2.66 ± 0.093 | 3.16 ± 0.13 | 3.13 ± 0.088
2 | GYFIINGSEKVLIAQER [RPB2] | 3.14 ± 0.21 | 2.94 ± 0.17 | 3.16 ± 0.18 | 2.15 ± 0.26
3 | ATDISGELRDYIEDFLL [YJR042W/NUP85] | 3.31 ± 0.1 | 3.31 ± 0.081 | 3.22 ± 0.056 | 3.3 ± 0.041
4 | TSNASMNTTLGSIGSRK [YAR002W/NUP60] | 3.32 ± 0.1 | 3.27 ± 0.11 | 3.37 ± 0.063 | 3.26 ± 0.085
5 | SSLYEASLNALKESIKN [RPN1] | 3.26 ± 0.1 | 3.1 ± 0.1 | 3.38 ± 0.085 | 3.08 ± 0.065
6 | EKRATSPLLESDSIEKI [PUP2] | 3.12 ± 0.087 | 3.07 ± 0.077 | 3.29 ± 0.09 | 3.23 ± 0.068
7 | GVDDQILATNSLRILAK [YJL039C/NUP192] | 3.14 ± 0.13 | 3.08 ± 0.08 | 3.12 ± 0.069 | 3.24 ± 0.076
8 | SASSLVITALKEPPRDR [RPL12A] | 2.83 ± 0.062 | 2.97 ± 0.074 | 2.66 ± 0.071 | 2.22 ± 0.052
9 | DSTAVALEEGLNEEAVI [YJL039C/NUP192] | 3.08 ± 0.084 | 3.12 ± 0.04 | 2.68 ± 0.058 | 2.98 ± 0.05
10 | VKLGNIWKESLIELSGG [SMC2] | 2.22 ± 0.18 | 2.24 ± 0.098 | 2.12 ± 0.14 | 2.19 ± 0.1
11 | RFSYSPPKEGNYEIVFD [YMR129W/POM152] | 3.05 ± 0.29 | 3.24 ± 0.18 | 3.13 ± 0.071 | 3.45 ± 0.16
12 | NENDSQAIITERLVEFS [YIL149C/MLP2] | 3.2 ± 0.095 | 3.15 ± 0.085 | 2.83 ± 0.087 | 2.87 ± 0.051
13 | VSIKFTNAAFPFHDPEA [ECM29] | 2.3 ± 0.053 | 2.11 ± 0.053 | 1.91 ± 0.068 | 1.83 ± 0.047
14 | SNHNNLNLNNSELQPQN [SNF2] | 3.02 ± 0.044 | 2.7 ± 0.062 | 2.97 ± 0.051 | 2.81 ± 0.056
15 | ENGDYAACEKLLPPIKI [RPN12] | – | – | 1.89 ± 0.21 | –
16 | REKRAREKAEAEAEKKK [RPL13A] | – | 3.62 ± 0.13 | 3.31 ± 0.061 | –
17 | EGMFANANRVFRTRFQD [SMC2] | 2.26 ± 0.097 | 1.76 ± 0.089 | 2.68 ± 0.25 | 2.31 ± 0.078
18 | PQQAQMQQAQFQAQQAQ [SNF2] | 2.94 ± 0.062 | 3.04 ± 0.058 | 2.99 ± 0.055 | 3.1 ± 0.041
19 | SSFNKRSKFLSTVAKFL [IRR1] | 2.76 ± 0.052 | 2.28 ± 0.054 | 2.08 ± 0.067 | 2.4 ± 0.035
20 | YNLRSLNLINAKLWFYI [RPN3] | 1.32 ± 0.046 | 1.24 ± 0.051 | 1.38 ± 0.083 | 1.48 ± 0.054
